Starred links: 1 amine or outer side, 2 acyl side, 3 side chain; linkers in the order of their positions; H or OH if unused. Positions of bridges follow the written chain, without caps; N, C: chain ends. Non-standard residues stand in square brackets, D forms with d. Groups on a side chain read outwards from the residue. *: point of attachment. Ala(1H-tetrazol-5-yl) = N[C@@H](Cc1nnn[nH]1)C(=O)O; PEG11 = NCCOCCOCCOCCOCCOCCOCCOCCOCCOCCOCCOCCC(=O)O; C18 diacid = O=C(O)CCCCCCCCCCCCCCCCC(=O)*; Dip = N[C@H](C(=O)O)C(c1ccccc1)c1ccccc1; γGlu = O=C(O)[C@H](CCC(=O)[*:2])N[*:1]; His(τ-Me) = Cn1cnc(C[C@H](N)C(=O)O)c1; Palmitoyl = CCCCCCCCCCCCCCCC(=O)*; β3hF = N[C@H](CC(=O)O)Cc1ccccc1; NMeK = CN[C@@H](CCCCN)C(=O)O; Isovaleryl = CC(C)CC(=O)*; Orn = NCCC[C@H](N)C(=O)O; Dab = NCC[C@H](N)C(=O)O; Dap = NC[C@H](N)C(=O)O; AEEA = NCCOCCOCC(=O)O; Ahx = NCCCCCC(=O)O
T1: ferroportin endogenously expressed on T47D cells (HTB 133, ATCC) (human, UniProt Q9NP59 1-571)
T1 sequence (looked up): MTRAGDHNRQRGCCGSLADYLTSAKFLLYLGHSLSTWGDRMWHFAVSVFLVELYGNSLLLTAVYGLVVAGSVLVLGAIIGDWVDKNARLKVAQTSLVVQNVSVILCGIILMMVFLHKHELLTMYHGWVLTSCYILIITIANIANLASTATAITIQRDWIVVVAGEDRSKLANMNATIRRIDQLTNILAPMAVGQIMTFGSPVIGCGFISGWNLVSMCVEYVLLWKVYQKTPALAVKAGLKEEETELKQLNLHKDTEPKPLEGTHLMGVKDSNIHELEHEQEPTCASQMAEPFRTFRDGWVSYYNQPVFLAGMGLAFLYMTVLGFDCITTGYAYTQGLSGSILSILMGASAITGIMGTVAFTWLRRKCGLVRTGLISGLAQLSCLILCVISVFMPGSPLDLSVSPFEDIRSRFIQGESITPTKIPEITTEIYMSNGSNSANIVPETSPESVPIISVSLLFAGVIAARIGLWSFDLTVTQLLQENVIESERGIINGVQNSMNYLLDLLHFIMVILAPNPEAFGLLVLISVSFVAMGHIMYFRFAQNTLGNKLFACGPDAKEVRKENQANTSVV

T2: human ferroportin (SLC40A1) fused in frame with GFP, stably expressed in HEK293 cells (human, UniProt Q9NP59 1-571)
T2 sequence (looked up): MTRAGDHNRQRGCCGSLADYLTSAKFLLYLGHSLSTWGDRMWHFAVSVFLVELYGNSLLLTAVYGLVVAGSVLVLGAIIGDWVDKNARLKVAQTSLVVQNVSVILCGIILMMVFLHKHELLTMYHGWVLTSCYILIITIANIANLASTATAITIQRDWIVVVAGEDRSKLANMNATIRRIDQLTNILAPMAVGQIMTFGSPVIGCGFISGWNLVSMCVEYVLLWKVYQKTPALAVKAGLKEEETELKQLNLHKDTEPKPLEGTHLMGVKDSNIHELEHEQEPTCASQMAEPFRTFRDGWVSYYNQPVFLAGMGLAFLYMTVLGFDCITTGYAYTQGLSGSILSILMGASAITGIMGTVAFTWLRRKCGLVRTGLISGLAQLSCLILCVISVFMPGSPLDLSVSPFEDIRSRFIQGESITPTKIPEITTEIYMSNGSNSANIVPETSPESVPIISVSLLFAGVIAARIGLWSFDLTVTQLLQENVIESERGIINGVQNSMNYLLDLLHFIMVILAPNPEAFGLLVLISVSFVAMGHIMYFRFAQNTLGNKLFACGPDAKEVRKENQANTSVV


What was measured:
[1] = molecular target: T1, ferroportin endogenously expressed on …; test: cell-based or functional assay
[2] = molecular target: T2, human ferroportin (SLC40A1) fused in …; test: cell-based or functional assay

| Binder | T47D MSA IC50 [1] [nM] | FPN EC50 [2] [nM] |
| --- | --- | --- |
| Isovaleryl-ETH[Dip]PAIK(Ac)[β3hF]-NH2 [Isovaleric Acid-E-T-H-[Dpa]-P-A-I-[Lys(Ac)]-[bhPhe]-NH2] | 355 | 175 |
| DiIsoAmylAmine_CH2_Acid-TH[Dip]PAIK([Ahx-Palmitoyl])[β3hF][dK]-NH2 [[DiIsoAmylAmine_CH2_Acid]-T-H-[Dpa]-P-A-I-[Lys(Ahx_Palm)]-[bhPhe]-[(D)Lys]-NH2] | 52.9 | 25.9 |
| Isovaleryl-ETH[Dip]PAIK([PEG11-Palmitoyl])[β3hF]-NH2 [Isovaleric Acid-E-T-H-[Dpa]-P-A-I-[Lys(2PEG11_Palm)]-[bhPhe]-NH2] | 1.88 | 44.5 |
| Isovaleryl-[Dab]TH[Dip]PAID[β3hF]K([Ahx-Palmitoyl])R-NH2 (lactam 1-8; SMILES CCCCCCCCCCCCCCCC(=O)NCCCCCC(=O)NCCCC[C@H](NC(=O)C[C@H](Cc1ccccc1)NC(=O)[C@@H]1CC(=O)NCC[C@H](NC(=O)CC(C)C)C(=O)N[C@@H]([C@@H](C)O)C(=O)N[C@@H](Cc2c[nH]cn2)C(=O)N[C@@H](C(c2ccccc2)c2ccccc2)C(=O)N2CCC[C@H]2C(=O)N[C@@H](C)C(=O)N[C@@H]([C@@H](C)CC)C(=O)N1)C(=O)N[C@@H](CCCNC(=N)N)C(N)=O) [Isovaleric Acid-Dab-T-H-[Dpa]-P-A-I-D-[bhPhe]-[Lys(Ahx_Palm)]-R-NH2] | 131 |  |
| Isovaleryl-ETH[Dip]PAI[dK][β3hF]K([Ahx-Palmitoyl])[dK]A-NH2 (SMILES CCCCCCCCCCCCCCCC(=O)NCCCCCC(=O)NCCCC[C@H](NC(=O)C[C@H](Cc1ccccc1)NC(=O)[C@@H](CCCCN)NC(=O)[C@@H](NC(=O)[C@H](C)NC(=O)[C@@H]1CCCN1C(=O)[C@@H](NC(=O)[C@H](Cc1c[nH]cn1)NC(=O)[C@@H](NC(=O)[C@H](CCC(=O)O)NC(=O)CC(C)C)[C@@H](C)O)C(c1ccccc1)c1ccccc1)[C@@H](C)CC)C(=O)N[C@H](CCCCN)C(=O)N[C@@H](C)C(N)=O) [Isovaleric Acid-E-T-H-[Dpa]-P-A-I-[(D)Lys]-[bhPhe]-[Lys(Ahx_Palm)]-[(D)Lys]-A-NH2] | 5.97 | 17.8 |
| Isovaleryl-KTH[Dip]PAIE[β3hF][NMeK]([Ahx-Palmitoyl])-NH2 (lactam 1-8; SMILES CCCCCCCCCCCCCCCC(=O)NCCCCCC(=O)NCCCC[C@@H](C(N)=O)N(C)C(=O)C[C@H](Cc1ccccc1)NC(=O)[C@@H]1CCC(=O)NCCCC[C@H](NC(=O)CC(C)C)C(=O)N[C@@H]([C@@H](C)O)C(=O)N[C@@H](Cc2c[nH]cn2)C(=O)N[C@@H](C(c2ccccc2)c2ccccc2)C(=O)N2CCC[C@H]2C(=O)N[C@@H](C)C(=O)N[C@@H]([C@@H](C)CC)C(=O)N1) [Isovaleric Acid-K-T-H-[Dpa]-P-A-I-E-[bhPhe]-NMe[Lys(Ahx_Palm)]-NH2] | 4.07 |  |
| Isovaleryl-ETHFPAIK([AEEA-AEEA-γGlu-C18 diacid])FEPRSKGAK-NH2 [Isovaleric Acid-E-T-H-F-P-A-I-[Lys(1PEG2_1PEG2_IsoGlu_C18_Diacid)]-F-E-P-R-S-K-G-A-K-NH2] | 3440 | 2360 |
| Isovaleryl-ETH[Dip]PAIK([AEEA-AEEA-γGlu-C18 diacid])[β3hF][dK]-NH2 [Isovaleric Acid-E-T-H-[Dpa]-P-A-I-[Lys(1PEG2_1PEG2_IsoGlu_C18_Diacid)]-[bhPhe]-[(D)Lys]-NH2] | 65.8 | 429 |
| Isovaleryl-[Ala(1H-tetrazol-5-yl)]T[His(τ-Me)][Dip]PAI[NMeK][β3hF]K([Ahx-Palmitoyl])-NH2 (SMILES CCCCCCCCCCCCCCCC(=O)NCCCCCC(=O)NCCCC[C@H](NC(=O)C[C@H](Cc1ccccc1)NC(=O)[C@H](CCCCN)N(C)C(=O)[C@@H](NC(=O)[C@H](C)NC(=O)[C@@H]1CCCN1C(=O)[C@@H](NC(=O)[C@H](Cc1cn(C)cn1)NC(=O)[C@@H](NC(=O)[C@H](Cc1nnn[nH]1)NC(=O)CC(C)C)[C@@H](C)O)C(c1ccccc1)c1ccccc1)[C@@H](C)CC)C(N)=O) [Isovaleric Acid-[Tet1]-T-[(1Me)His]-[Dpa]-P-A-I-[(N-Me)Lys]-[bhPhe]-[Lys(Ahx_Palm)]-NH2] | 3.94 | 23.9 |
| XKTHXPAIEXXR (N-term Isovaleric Acid; Dpa4; bhPhe9; Lys(Ahx_Palm)10; C-term NH2; K and E cyclized (lactam)) [Isovaleric Acid-K-T-H-[Dpa]-P-A-I-E-[bhPhe]-[Lys(Ahx_Palm)]-R-NH2; (K and E cyclized)] | 1.74 | 13.8 |
| Isovaleryl-ETHFPAIK([γGlu-Palmitoyl])FEPRSKGAK-NH2 [Isovaleric Acid-E-T-H-F-P-A-I-[Lys(IsoGlu_Palm)]-F-E-P-R-S-K-G-A-K-NH2] | 289 | 280 |
| Isovaleryl-ETH[Dip]PAIK([γGlu-Palmitoyl])[β3hF][dK]-NH2 (SMILES CCCCCCCCCCCCCCCC(=O)N[C@@H](CCC(=O)NCCCC[C@H](NC(=O)[C@@H](NC(=O)[C@H](C)NC(=O)[C@@H]1CCCN1C(=O)[C@@H](NC(=O)[C@H](Cc1c[nH]cn1)NC(=O)[C@@H](NC(=O)[C@H](CCC(=O)O)NC(=O)CC(C)C)[C@@H](C)O)C(c1ccccc1)c1ccccc1)[C@@H](C)CC)C(=O)N[C@H](CC(=O)N[C@H](CCCCN)C(N)=O)Cc1ccccc1)C(=O)O) [Isovaleric Acid-E-T-H-[Dpa]-P-A-I-[Lys(IsoGlu_Palm)]-[bhPhe]-[(D)Lys]-NH2] | 13.3 | 314 |
| Isovaleryl-KTH[Dip]PAID[β3hF]K([Ahx-Palmitoyl])R-NH2 (lactam 1-8; SMILES CCCCCCCCCCCCCCCC(=O)NCCCCCC(=O)NCCCC[C@H](NC(=O)C[C@H](Cc1ccccc1)NC(=O)[C@@H]1CC(=O)NCCCC[C@H](NC(=O)CC(C)C)C(=O)N[C@@H]([C@@H](C)O)C(=O)N[C@@H](Cc2c[nH]cn2)C(=O)N[C@@H](C(c2ccccc2)c2ccccc2)C(=O)N2CCC[C@H]2C(=O)N[C@@H](C)C(=O)N[C@@H]([C@@H](C)CC)C(=O)N1)C(=O)N[C@@H](CCCNC(=N)N)C(N)=O) [Isovaleric Acid-K-T-H-[Dpa]-P-A-I-D-[bhPhe]-[Lys(Ahx_Palm)]-R-NH2] | 3.96 |  |
| Isovaleryl-[Orn]TH[Dip]PAID[β3hF][Lys(Ahx_Palm)]R-NH2 (lactam (positions not given here); not fully specified (bridges)) [Isovaleric Acid-Orn-T-H-[Dpa]-P-A-I-D-[bhPhe]-[Lys(Ahx_Palm)]-R-NH2] | 35 |  |
| Isovaleryl-ETHFPAIK([AEEA-AEEA-Ahx-C18 diacid])FEPRSKGAK-NH2 [Isovaleric Acid-E-T-H-F-P-A-I-[Lys(1Peg2_1Peg2_Ahx_C18_Diacid)]-F-E-P-R-S-K-G-A-K-NH2] | 261 | 588 |
| Isovaleryl-[Dap]TH[Dip]PAID[β3hF]K([Ahx-Palmitoyl])R-NH2 (lactam 1-8; SMILES CCCCCCCCCCCCCCCC(=O)NCCCCCC(=O)NCCCC[C@H](NC(=O)C[C@H](Cc1ccccc1)NC(=O)[C@@H]1CC(=O)NC[C@H](NC(=O)CC(C)C)C(=O)N[C@@H]([C@@H](C)O)C(=O)N[C@@H](Cc2c[nH]cn2)C(=O)N[C@@H](C(c2ccccc2)c2ccccc2)C(=O)N2CCC[C@H]2C(=O)N[C@@H](C)C(=O)N[C@@H]([C@@H](C)CC)C(=O)N1)C(=O)N[C@@H](CCCNC(=N)N)C(N)=O) [Isovaleric Acid-Dap-T-H-[Dpa]-P-A-I-D-[bhPhe]-[Lys(Ahx_Palm)]-R-NH2] | 733 |  |

Source: patent US20240066131A1 (Protagonist Therapeutics, Inc., priority 2020, published 2024)
